Results reported in the supplement of paper PMC9112550, “Optimization of the antimicrobial peptide Bac7 by deep mutational scanning” (BMC Biology, 2022).

System: Escherichia coli TOP10
Assay: shrunken log2 fold change of peptide-encoding DNA abundance (4.5 h post-induction vs induction); higher = less antimicrobial activity (less host growth inhibition)
Details: time post-induction: 4.5 h; library: site-saturation at positions 5, 18, 19, 20
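Also: peptides expressed intracellularly from a pBAD plasmid library in pooled LB shake-flask culture, induced with 0.3% L-arabinose, DNA abundance read by NGS, three biological replicates, DESeq2 with apeglm shrinkage.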

RRIRARPPRLPRPRPRPAPDPRP was tested, and the “shrunken log2 fold change” value was 0.93.

For RRIRHRPPRLPRPRPRPPFQPRP, the “shrunken log2 fold change” value was 0.0923.

RRIRHRPPRLPRPRPRPCAYPRP was tested, and the “shrunken log2 fold change” value was -0.0102.

With RRIRLRPPRLPRPRPRPVMPPRP the “shrunken log2 fold change” value was -0.29.

RRIRWRPPRLPRPRPRPQLMPRP was tested, and the “shrunken log2 fold change” value was 0.13.

For RRIRSRPPRLPRPRPRPCTSPRP, the “shrunken log2 fold change” value was -0.0192.

For RRIRKRPPRLPRPRPRPTGNPRP, the “shrunken log2 fold change” value was 0.563.

For RRIRLRPPRLPRPRPRPWRIPRP, the “shrunken log2 fold change” value was 0.0246.

RRIRKRPPRLPRPRPRPGCLPRP was tested, and the “shrunken log2 fold change” value was 0.646.

In the case of RRIRQRPPRLPRPRPRPARIPRP, the “shrunken log2 fold change” value was -0.0224.

RRIRFRPPRLPRPRPRPPIPPRP was tested, and the “shrunken log2 fold change” value was 0.257.

For RRIRYRPPRLPRPRPRPKTFPRP, the “shrunken log2 fold change” value was -0.251.

For RRIRDRPPRLPRPRPRPGKHPRP, the “shrunken log2 fold change” value was -0.0728.

RRIRGRPPRLPRPRPRPMGTPRP was tested, and the “shrunken log2 fold change” value was 0.48.

With RRIRLRPPRLPRPRPRPFCNPRP the “shrunken log2 fold change” value was -0.245.

With RRIRVRPPRLPRPRPRPINNPRP the “shrunken log2 fold change” value was -0.684.

With RRIRVRPPRLPRPRPRPHYFPRP the “shrunken log2 fold change” value was -0.00578.

RRIRIRPPRLPRPRPRPTRNPRP was tested, and the “shrunken log2 fold change” value was -0.268.

With RRIRCRPPRLPRPRPRPEDNPRP the “shrunken log2 fold change” value was 0.11.

For RRIRCRPPRLPRPRPRPWGHPRP, the “shrunken log2 fold change” value was -0.092.

For RRIRRRPPRLPRPRPRPDWRPRP, the “shrunken log2 fold change” value was 0.36.

In the case of RRIRHRPPRLPRPRPRPIYYPRP, the “shrunken log2 fold change” value was -0.32.

RRIRMRPPRLPRPRPRPRSQPRP was tested, and the “shrunken log2 fold change” value was 0.108.

With RRIRTRPPRLPRPRPRPCEPPRP the “shrunken log2 fold change” value was -0.0796.

For RRIRTRPPRLPRPRPRPPRHPRP, the “shrunken log2 fold change” value was 0.152.

RRIRVRPPRLPRPRPRPVQKPRP was tested, and the “shrunken log2 fold change” value was 0.0709.

With RRIRLRPPRLPRPRPRPRDWPRP the “shrunken log2 fold change” value was 0.847.

With RRIRYRPPRLPRPRPRPSHQPRP the “shrunken log2 fold change” value was -0.594.

In the case of RRIRWRPPRLPRPRPRPQKAPRP, the “shrunken log2 fold change” value was 0.123.

With RRIRGRPPRLPRPRPRPCSHPRP the “shrunken log2 fold change” value was -0.112.

In the case of RRIRHRPPRLPRPRPRPGEMPRP, the “shrunken log2 fold change” value was 0.257.

For RRIRPRPPRLPRPRPRPDKMPRP, the “shrunken log2 fold change” value was 0.0748.

For RRIRFRPPRLPRPRPRPIQWPRP, the “shrunken log2 fold change” value was 0.0986.

RRIRARPPRLPRPRPRPKKIPRP was tested, and the “shrunken log2 fold change” value was 0.489.

RRIRPRPPRLPRPRPRPNLMPRP was tested, and the “shrunken log2 fold change” value was -0.0727.

For RRIRERPPRLPRPRPRPTCIPRP, the “shrunken log2 fold change” value was -0.23.

For RRIRDRPPRLPRPRPRPQADPRP, the “shrunken log2 fold change” value was 0.103.

For RRIRCRPPRLPRPRPRPMRNPRP, the “shrunken log2 fold change” value was 0.185.

In the case of RRIRRRPPRLPRPRPRPRMSPRP, the “shrunken log2 fold change” value was 0.938.

For RRIRERPPRLPRPRPRPRANPRP, the “shrunken log2 fold change” value was -0.158.

RRIRWRPPRLPRPRPRPFDNPRP was tested, and the “shrunken log2 fold change” value was -0.114.

With RRIRFRPPRLPRPRPRPWYSPRP the “shrunken log2 fold change” value was -0.0415.

RRIRMRPPRLPRPRPRPIQLPRP was tested, and the “shrunken log2 fold change” value was -0.0799.

In the case of RRIRDRPPRLPRPRPRPVREPRP, the “shrunken log2 fold change” value was 0.929.

With RRIRMRPPRLPRPRPRPQFNPRP the “shrunken log2 fold change” value was -0.661.

In the case of RRIRDRPPRLPRPRPRPEETPRP, the “shrunken log2 fold change” value was -0.00131.

With RRIRRRPPRLPRPRPRPMMIPRP the “shrunken log2 fold change” value was -0.185.

RRIRQRPPRLPRPRPRPFGIPRP was tested, and the “shrunken log2 fold change” value was -0.138.

With RRIRTRPPRLPRPRPRPVPWPRP the “shrunken log2 fold change” value was 0.95.

For RRIRWRPPRLPRPRPRPAVPPRP, the “shrunken log2 fold change” value was 0.506.

RRIRGRPPRLPRPRPRPRNYPRP was tested, and the “shrunken log2 fold change” value was 0.00522.

RRIRQRPPRLPRPRPRPQYAPRP was tested, and the “shrunken log2 fold change” value was -0.176.

With RRIRHRPPRLPRPRPRPGISPRP the “shrunken log2 fold change” value was -0.315.

With RRIRNRPPRLPRPRPRPMADPRP the “shrunken log2 fold change” value was 0.0252.

For RRIRTRPPRLPRPRPRPEKMPRP, the “shrunken log2 fold change” value was 0.171.

With RRIRWRPPRLPRPRPRPRSLPRP the “shrunken log2 fold change” value was -0.115.

RRIRTRPPRLPRPRPRPCSPPRP was tested, and the “shrunken log2 fold change” value was -0.0356.

With RRIRFRPPRLPRPRPRPPNWPRP the “shrunken log2 fold change” value was 0.211.

For RRIRRRPPRLPRPRPRPYGIPRP, the “shrunken log2 fold change” value was -0.161.

With RRIRHRPPRLPRPRPRPKSKPRP the “shrunken log2 fold change” value was -0.598.

RRIRVRPPRLPRPRPRPRWQPRP was tested, and the “shrunken log2 fold change” value was 0.0341.

With RRIRCRPPRLPRPRPRPYAGPRP the “shrunken log2 fold change” value was -0.513.

In the case of RRIRDRPPRLPRPRPRPMGWPRP, the “shrunken log2 fold change” value was 0.476.

For RRIRCRPPRLPRPRPRPIGAPRP, the “shrunken log2 fold change” value was -0.0968.

With RRIRFRPPRLPRPRPRPQYMPRP the “shrunken log2 fold change” value was -1.77.

RRIRIRPPRLPRPRPRPYDHPRP was tested, and the “shrunken log2 fold change” value was -0.285.

With RRIRDRPPRLPRPRPRPLVEPRP the “shrunken log2 fold change” value was 0.331.

For RRIRTRPPRLPRPRPRPNHQPRP, the “shrunken log2 fold change” value was -0.35.

RRIRIRPPRLPRPRPRPVPEPRP was tested, and the “shrunken log2 fold change” value was -0.138.

With RRIRERPPRLPRPRPRPNCIPRP the “shrunken log2 fold change” value was -0.712.

With RRIRNRPPRLPRPRPRPQMKPRP the “shrunken log2 fold change” value was -0.281.

RRIRWRPPRLPRPRPRPQPLPRP was tested, and the “shrunken log2 fold change” value was -0.0153.

With RRIRIRPPRLPRPRPRPCDVPRP the “shrunken log2 fold change” value was -0.124.

In the case of RRIRQRPPRLPRPRPRPTGSPRP, the “shrunken log2 fold change” value was -0.0708.

In the case of RRIRFRPPRLPRPRPRPRTMPRP, the “shrunken log2 fold change” value was 0.0577.

In the case of RRIRDRPPRLPRPRPRPAKIPRP, the “shrunken log2 fold change” value was -0.00511.

With RRIRQRPPRLPRPRPRPPYWPRP the “shrunken log2 fold change” value was 0.0656.

In the case of RRIRHRPPRLPRPRPRPTMAPRP, the “shrunken log2 fold change” value was -0.0607.

For RRIRTRPPRLPRPRPRPVMKPRP, the “shrunken log2 fold change” value was 0.00771.

With RRIRKRPPRLPRPRPRPFYIPRP the “shrunken log2 fold change” value was -0.44.

RRIRMRPPRLPRPRPRPKKGPRP was tested, and the “shrunken log2 fold change” value was 0.364.

RRIRSRPPRLPRPRPRPTGIPRP was tested, and the “shrunken log2 fold change” value was -0.0906.

In the case of RRIRIRPPRLPRPRPRPVIEPRP, the “shrunken log2 fold change” value was -0.121.

With RRIRLRPPRLPRPRPRPHSWPRP the “shrunken log2 fold change” value was 0.0861.

For RRIRNRPPRLPRPRPRPVNKPRP, the “shrunken log2 fold change” value was -0.19.

RRIRPRPPRLPRPRPRPICWPRP was tested, and the “shrunken log2 fold change” value was 0.0407.

RRIRTRPPRLPRPRPRPWAEPRP was tested, and the “shrunken log2 fold change” value was -0.0837.

RRIRYRPPRLPRPRPRPRQYPRP was tested, and the “shrunken log2 fold change” value was 0.0153.

With RRIRKRPPRLPRPRPRPARAPRP the “shrunken log2 fold change” value was 0.739.

For RRIRPRPPRLPRPRPRPQLSPRP, the “shrunken log2 fold change” value was -0.485.

With RRIRHRPPRLPRPRPRPFFAPRP the “shrunken log2 fold change” value was 0.0898.
